# According to patent US10441663B2, “Methods for treating cancer” (Bicycle Therapeutics Limited, priority 2016, dated 2019):
# “Also recorded” adds a separate entry of the source. *1 amine or outer side, *2 acyl side, *3 side chain or, on linkers, in order; H or OH if unused. Where a SMILES comes first, the peptide text is derived from it. Bridges are numbered along the chain shown (N, C = ends). [ ]: non-standard residue; d: D form. The star is where a group is joined. X1 = COc1cc2cc(c1Cl)N(C)C(=O)C[C@H](OC(=O)[C@H](C)N(C)C(=O)CCSSC(C)CCC(=O)*)[C@]1(C)O[C@H]1[C@H](C)[C@@H]1C[C@@](O)(NC(=O)O1)[C@H](OC)/C=C/C=C(\C)C2; 1Nal = N[C@@H](Cc1cccc2ccccc12)C(=O)O; TBMB = c1c(C[*:1])cc(C[*:3])cc1C[*:2]; Tle = CC(C)(C)[C@H](N)C(=O)O; βAla = NCCC(=O)O; Sar = CNCC(=O)O
# System: EBC-1 xenograft
# Assay: Efficacy of BT1718 in EBC-1 xenograft model (Example 1)
# Format: in vivo, Mus Musculus
# Settings: for Tumor Size (mm^3): Mean ± SEM
# Protocol: The objective of this study was to evaluate the anti-tumor efficacy of BT1718 in EBC-1 xenograft model in female BALB/c nude mice.
# The EBC-1 tumor cells were maintained in vitro as a monolayer culture in EMEM medium supplemented with 10% heat inactivated fetal bovine serum at 37° C. in an atmosphere of 5% CO2 in air. The tumor cells will be routinely subcultured twice weekly by trypsin-EDTA treatment. The cells growing in an exponential growth phase will be harvested and counted for tumor inoculation.
# Each mouse was inoculated subcutaneously at the right flank with EBC-1 tumor cells (10×10^6) in 0.2 ml of PBS for tumor development. The animals were randomized and treatment was started when the average tumor volume reaches approximately 165 mm^3 for the efficacy study.
# All the procedures related to animal handling, care and the treatment in the study were performed according to the guidelines of the Association for Assessment and Accreditation of Laboratory Animal Care (AAALAC). At the time of routine monitoring, the animals were daily checked for any effects of tumor growth and treatments on normal behavior such as mobility, food and water consumption (by looking only), body weight gain/loss (body weights were measured every day), eye/hair matting and any other abnormal effect as stated in the protocol. Death and observed clinical signs were recorded on the basis of the numbers of animals within each subset.
# The major endpoint was to see if the tumor growth could be delayed or mice could be cured. Tumor size was measured three times weekly in two dimensions using a caliper, and the volume was expressed in mm^3 using the formula: V=0.5 a×b^2 where a and b are the long and short diameters of the tumor, respectively. The tumor size was then used for calculations of T/C value. The T/C value (in percent) is an indication of antitumor effectiveness; T and C are the mean volumes of the treated and control groups, respectively, on a given day.
# TGI was calculated for each group using the formula: TGI (%)=[1−(Ti−T0)/(Vi−V0)]×100; Ti is the average tumor volume of a treatment group on a given day, T0 is the average tumor volume of the treatment group on the day of treatment start, Vi is the average tumor volume of the vehicle control group on the same day with Ti, and V0 is the average tumor volume of the vehicle group on the day of treatment start.
# Summary statistics, including mean and the standard error of the mean (SEM), are provided for the tumor volume of each group at each time point.
# Statistical analysis of difference in tumor volume among the groups was conducted on the data obtained at the best therapeutic time point after the final dose.
# A one-way ANOVA was performed to compare tumor volume among groups, and when a significant F-statistics (a ratio of treatment variance to the error variance) was obtained, comparisons between groups were carried out with Games-Howell test. All data were analyzed using Prism. P<0.05 was considered to be statistically significant.
structure (smiles),measurement,setting,value
COc1cc2cc(c1Cl)N(C)C(=O)C[C@H](OC(=O)[C@H](C)N(C)C(=O)CCSSC(C)CCC(=O)NCCC(=O)N(C)CC(=O)N(C)CC(=O)N(C)CC(=O)N(C)CC(=O)N(C)CC(=O)N(C)CC(=O)N(C)CC(=O)N(C)CC(=O)N(C)CC(=O)N(C)CC(=O)N[C@@H](C)C(=O)N[C@H]1CSCc3cc4cc(c3)CSC[C@H](NC(=O)[C@@H](C)NC(=O)[C@H](Cc3cccc5ccccc35)NC(=O)[C@H](CCC(=O)O)NC(=O)[C@H](CC(N)=O)NC(=O)[C@@H](C)NC1=O)C(=O)N[C@@H](CCC(=O)O)C(=O)N[C@@H](CC(=O)O)C(=O)N[C@@H](Cc1ccccc1)C(=O)N[C@@H](Cc1ccc(O)cc1)C(=O)N[C@@H](CC(=O)O)C(=O)N[C@@H](C(C)(C)C)C(=O)N[C@H](C(N)=O)CSC4)[C@]1(C)O[C@H]1[C@H](C)[C@@H]1C[C@@](O)(NC(=O)O1)[C@H](OC)/C=C/C=C(\C)C2 (some centres unmarked) [BT1718] ({X1-βAla}-[Sar][Sar][Sar][Sar][Sar][Sar][Sar][Sar][Sar][Sar]AC[dA]NE[1Nal][dA]CEDFYD[Tle]C-NH2; linker 12-18-25 via TBMB (inferred)),tumor growth,"3 mg/kg, twice weekly for two weeks",significant reduction in tumor growth
same,post-treatment monitoring,9 mg/kg qw group and 4.5 mg/kg biw group,re-growth after dosing cessation
same,tumor response,10 mg/kg tiw,complete tumor clearance
same,tumor response,"10 mg/kg, twice weekly for two weeks",complete regressions
same,body weight effect,30 mg/kg qw,marked body weight loss; also recorded: severe body weight loss
same,tumor response,"30 mg/kg qw, 15 mg/kg biw, 10 mg/kg tiw and 4.3 mg/kg qd, by day 14",completely regressed the tumor
same,Body Weight,"1.3 mpk qd, day 0",25.1 ± 0.3 g
same,Body Weight (% Change),"1.3 mpk qd, day 0",0.0%
same,Tumor Volume,"1.3 mpk qd, day 0",161 ± 22 mm^3
same,Body Weight,"1.3 mpk qd, day 2",24.6 ± 0.6 g
same,Body Weight (% Change),"1.3 mpk qd, day 2",−2.0 ± 2.6%
same,Tumor Volume,"1.3 mpk qd, day 2",204 ± 30 mm^3
same,Body Weight,"1.3 mpk qd, day 4",24.9 ± 0.5 g
same,Body Weight (% Change),"1.3 mpk qd, day 4",−0.8 ± 1.7%
same,Tumor Volume,"1.3 mpk qd, day 4",243 ± 36 mm^3
same,Body Weight,"1.3 mpk qd, day 7",24.2 ± 0.5 g
same,Body Weight (% Change),"1.3 mpk qd, day 7",−3.5 ± 1.3%
same,Tumor Volume,"1.3 mpk qd, day 7",278 ± 35 mm^3
same,Body Weight,"1.3 mpk qd, day 9",24.5 ± 0.5 g
same,Body Weight (% Change),"1.3 mpk qd, day 9",−2.2 ± 2.0%
same,Tumor Volume,"1.3 mpk qd, day 9",326 ± 46 mm^3
same,Body Weight,"1.3 mpk qd, day 11",25.4 ± 0.4 g
same,Body Weight (% Change),"1.3 mpk qd, day 11",1.3 ± 1.4%
same,Tumor Volume,"1.3 mpk qd, day 11",370 ± 40 mm^3
same,Body Weight,"1.3 mpk qd, day 14",25.2 ± 0.8 g
same,Body Weight (% Change),"1.3 mpk qd, day 14",0.5 ± 3.2%
same,T/C (%),"1.3 mpk qd, day 14",38%
same,TGI (%),"1.3 mpk qd, day 14",71%
same,Tumor Volume,"1.3 mpk qd, day 14",473 ± 44 mm^3
same,Tumor Size (mm^3),"1.3 mpk qd, day 14",473 ± 44 mm^3
same,Body Weight,"3 mpk tiw, day 0",24.0 ± 0.2 g
same,Body Weight (% Change),"3 mpk tiw, day 0",0.0%
same,Tumor Volume,"3 mpk tiw, day 0",165 ± 13 mm^3
same,Body Weight,"3 mpk tiw, day 2",23.8 ± 0.3 g
same,Body Weight (% Change),"3 mpk tiw, day 2",−1.0 ± 0.9%
same,Tumor Volume,"3 mpk tiw, day 2",251 ± 18 mm^3
same,Body Weight,"3 mpk tiw, day 4",24.1 ± 0.3 g
same,Body Weight (% Change),"3 mpk tiw, day 4",0.3 ± 0.7%
same,Tumor Volume,"3 mpk tiw, day 4",381 ± 26 mm^3
same,Body Weight,"3 mpk tiw, day 7",24.5 ± 0.2 g
same,Body Weight (% Change),"3 mpk tiw, day 7",2.0 ± 0.2%
same,Tumor Volume,"3 mpk tiw, day 7",501 ± 41 mm^3
same,Body Weight,"3 mpk tiw, day 9",24.7 ± 0.2 g
same,Body Weight (% Change),"3 mpk tiw, day 9",2.8 ± 0.6%
same,Tumor Volume,"3 mpk tiw, day 9",525 ± 40 mm^3
same,Body Weight,"3 mpk tiw, day 11",24.7 ± 0.2 g
same,Body Weight (% Change),"3 mpk tiw, day 11",3.1 ± 1.0%
same,Tumor Volume,"3 mpk tiw, day 11",540 ± 46 mm^3
same,Body Weight,"3 mpk tiw, day 14",25.1 ± 0.2 g
same,Body Weight (% Change),"3 mpk tiw, day 14",4.6 ± 1.5%
same,T/C (%),"3 mpk tiw, day 14",52%
same,TGI (%),"3 mpk tiw, day 14",56%
same,Tumor Volume,"3 mpk tiw, day 14",644 ± 56 mm^3
same,Tumor Size (mm^3),"3 mpk tiw, day 14",644 ± 56 mm^3
same,Body Weight,"4.3 mpk qd, day 0",24.8 ± 0.4 g
same,Body Weight (% Change),"4.3 mpk qd, day 0",0.0%
same,Tumor Volume,"4.3 mpk qd, day 0",165 ± 18 mm^3
same,Body Weight,"4.3 mpk qd, day 2",23.9 ± 0.5 g
same,Body Weight (% Change),"4.3 mpk qd, day 2",−3.4 ± 1.1%
same,Tumor Volume,"4.3 mpk qd, day 2",209 ± 7 mm^3
same,Body Weight,"4.3 mpk qd, day 4",23.6 ± 0.8 g
same,Body Weight (% Change),"4.3 mpk qd, day 4",−4.6 ± 2.0%
same,Tumor Volume,"4.3 mpk qd, day 4",154 ± 10 mm^3
same,Body Weight,"4.3 mpk qd, day 7",23.7 ± 0.5 g
same,Body Weight (% Change),"4.3 mpk qd, day 7",−4.2 ± 1.3%
same,Tumor Volume,"4.3 mpk qd, day 7",81 ± 3 mm^3
same,Body Weight,"4.3 mpk qd, day 9",23.5 ± 0.5 g
same,Body Weight (% Change),"4.3 mpk qd, day 9",−5.2 ± 1.2%
same,Tumor Volume,"4.3 mpk qd, day 9",39 ± 3 mm^3
same,Body Weight,"4.3 mpk qd, day 11",24.7 ± 0.7 g
same,Body Weight (% Change),"4.3 mpk qd, day 11",−0.4 ± 1.7%
same,Tumor Volume,"4.3 mpk qd, day 11",6 ± 3 mm^3
same,Body Weight,"4.3 mpk qd, day 14",23.5 ± 0.6 g
same,Body Weight (% Change),"4.3 mpk qd, day 14",−5.1 ± 1.9%
same,T/C (%),"4.3 mpk qd, day 14",0%
same,TGI (%),"4.3 mpk qd, day 14",115%
same,Tumor Volume,"4.3 mpk qd, day 14",0 ± 0 mm^3
same,Tumor Size (mm^3),"4.3 mpk qd, day 14",0 ± 0 mm^3
same,Body Weight,"4.5 mpk biw, day 0",24.0 ± 0.6 g
same,Body Weight (% Change),"4.5 mpk biw, day 0",0.0%
same,Tumor Volume,"4.5 mpk biw, day 0",161 ± 21 mm^3
same,Body Weight,"4.5 mpk biw, day 2",23.4 ± 0.6 g
same,Body Weight (% Change),"4.5 mpk biw, day 2",−2.2 ± 1.0%
same,Tumor Volume,"4.5 mpk biw, day 2",239 ± 15 mm^3
same,Body Weight,"4.5 mpk biw, day 4",23.7 ± 0.6 g
same,Body Weight (% Change),"4.5 mpk biw, day 4",−1.3 ± 0.7%
same,Tumor Volume,"4.5 mpk biw, day 4",276 ± 28 mm^3
same,Body Weight,"4.5 mpk biw, day 7",24.8 ± 0.7 g
same,Body Weight (% Change),"4.5 mpk biw, day 7",3.3 ± 0.9%
same,Tumor Volume,"4.5 mpk biw, day 7",296 ± 29 mm^3
same,Body Weight,"4.5 mpk biw, day 9",24.2 ± 0.6 g
same,Body Weight (% Change),"4.5 mpk biw, day 9",1.0 ± 0.7%
same,Tumor Volume,"4.5 mpk biw, day 9",285 ± 19 mm^3
same,Body Weight,"4.5 mpk biw, day 11",24.5 ± 0.7 g
same,Body Weight (% Change),"4.5 mpk biw, day 11",2.4 ± 1.1%
same,Tumor Volume,"4.5 mpk biw, day 11",254 ± 46 mm^3
same,Body Weight,"4.5 mpk biw, day 14",25.1 ± 0.6 g
same,Body Weight (% Change),"4.5 mpk biw, day 14",5.0 ± 0.7%
same,T/C (%),"4.5 mpk biw, day 14",23%
same,TGI (%),"4.5 mpk biw, day 14",89%
same,Tumor Volume,"4.5 mpk biw, day 14",285 ± 49 mm^3
same,Tumor Size (mm^3),"4.5 mpk biw, day 14",285 ± 49 mm^3
same,Body Weight,"4.5 mpk biw, day 16",24.7 ± 0.8 g
same,Body Weight (% Change),"4.5 mpk biw, day 16",3.1 ± 1.5%
same,Tumor Volume,"4.5 mpk biw, day 16",331 ± 60 mm^3
same,Body Weight,"4.5 mpk biw, day 18",25.2 ± 0.8 g
same,Body Weight (% Change),"4.5 mpk biw, day 18",5.3 ± 1.6%
same,Tumor Volume,"4.5 mpk biw, day 18",409 ± 97 mm^3
same,Body Weight,"4.5 mpk biw, day 21",25.2 ± 0.7 g
same,Body Weight (% Change),"4.5 mpk biw, day 21",5.2 ± 1.4%
